Measurements published in patent publication US20240366776A1 (Hoffmann-La Roche, published 2024).

Key:
PD-1 = PD-1 (human, UniProt Q15116 25-167, limits assumed); test: HTRF
human IL-2 [1] = biological target: T1, human IL-2 (human, UniProt P60568 21-153, biotin-labeled in the IL2RB blocking assay); test: HTRF
T1 construct: also called biotin-labeled IL-2 (Acro Biosystems IL2-H82E4)

human IL-2 [2] = biological target: T1, human IL-2; test: HTRF IL-2:IL2RB
PD-1-Fc = PD-1-Fc (UniProt Q15116 25-167, limits assumed); test: cell-based or functional assay
Chain of PD-1-Fc (Q15116 25-167 limits assumed): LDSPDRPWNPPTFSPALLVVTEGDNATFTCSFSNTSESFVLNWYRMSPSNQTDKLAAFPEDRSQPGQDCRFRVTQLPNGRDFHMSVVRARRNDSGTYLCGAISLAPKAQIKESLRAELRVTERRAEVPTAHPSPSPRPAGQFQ

Chain of PD-1 (Q15116 25-167 limits assumed): as above
T1 sequence (P60568 21-153 limits assumed): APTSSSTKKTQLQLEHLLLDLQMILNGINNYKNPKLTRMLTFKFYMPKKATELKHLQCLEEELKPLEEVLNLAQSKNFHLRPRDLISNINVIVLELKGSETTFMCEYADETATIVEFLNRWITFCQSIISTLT

Binder | PD1 Binding (PD-1) | IL2 Binding (human IL-2 [1]) | IL2RB Blocking (human IL-2 [2]) | IL-2 activity EC50, HEK-Blue IL-2 reporter cells, IgG1 coated wells (control) (PD-1-Fc) [nM] | IL-2 activity EC50, HEK-Blue IL-2 reporter cells, PD-1 coated wells (PD-1-Fc) [nM]
PD1-R07-A05 (scFv) scFv: QVQLVQSGAEVKKPGASVKVSCKASGYTFTTYYVHWVRQAPGQGLEWMGIINPSGGSTSYAQNFQGRVTMTRDTSTSTVYMELSSLRSEDTAVYYCASGWDVWGQGTTVTVSSASGGGGSGGGGSGGGGSHASEIVMTQSPATLSVSPGERATLSCRASQSVNTYLAWYQQKPGQAPRLLIYGASTRATGIPARFSGSGSGTEFTLTISSLQSEDFAVYYCQQYGSSPVTFGQGTRLEIK | 653 | 19 | 1730 | – | –
AF4386 (other) heavy 1: APTSSSTKKTQLQLEHLLLDLQMILNGINNYKNPKLTDMLTFEFYMPKKATELKHLQCLERELKPLEEVLNLAQSKNFHLRPRDLISNINVIVLELKGSETTFMCEYADETATIVEFLNRWITFCQSIISTLTGGGGSGGGGSGGGGSGGGGSQVQLVQSGAEVKKPGASVKVSCKASGDTFTRYYVHWVRQAPGQGLEWMGIINPSGGYASYAQKFQGRVTMTRDTSTSTVYMELSSLRSEDTAVYYCAAGLFIWGQGTLVTVSSAKTTAPSVYPLAPVCGDTTGSSVTLGCLVKGYFPEPVTLTWNSGSLSSGVHTFPAVLQSDLYTLSSSVTVTSSTWPSQSITCNVAHPASSTKVDKKIEPRGPTIKPCPPCKCPAPNAAGGPSVFIFPPKIKDVLMISLSPIVTCVVVDVSEDDPDVQISWFVNNVEVHTAQTQTHREDYNSTLRVVSALPIQHQDWMSGKEFKCKVNNKDLGAPIERTISKPKGSVRAPQVYVLPPPEEEMTKKQVTLTCMVTDFMPEDIYVEWTNNGKTELNYKNTEPVLDSDGSYFMYSDLRVEKKNWVERNSYSCSVVHEGLHNHHTTESFSRTPGK heavy 2: QVQLVQSGAEVKKPGASVKVSCKASGDTFTRYYVHWVRQAPGQGLEWMGIINPSGGYASYAQKFQGRVTMTRDTSTSTVYMELSSLRSEDTAVYYCAAGLFIWGQGTLVTVSSAKTTAPSVYPLAPVCGDTTGSSVTLGCLVKGYFPEPVTLTWNSGSLSSGVHTFPAVLQSDLYTLSSSVTVTSSTWPSQSITCNVAHPASSTKVDKKIEPRGPTIKPCPPCKCPAPNAAGGPSVFIFPPKIKDVLMISLSPIVTCVVVDVSEDDPDVQISWFVNNVEVHTAQTQTHREDYNSTLRVVSALPIQHQDWMSGKEFKCKVNNKDLGAPIERTISKPKGSVRAPQVYVLPPPEKEMTKKQVSLTCLVKDFMPEDIYVEWTNNGKTELNYKNTEPVLKSDGSYFMYSKLTVEKKNWVERNSYSCSVVHEGLHNHHTTKSFSRTPGGGGSGGGSHHHHHH light: DIQMTQSPSSLSASVGDRVTITCRASQSIGRYLAWYQQKPGKAPKLLIYSASNLETGVPSRFSGSGSGTDFTLTISSLQPEDFATYYCQQYNSFPVTFGPGTKVDIKRADAAPTVSIFPPSSEQLTSGGASVVCFLNNFYPKDINVKWKIDGSERQNGVLNSWTDQDSKDSTYSMSSTLTLTKDEYERHNSYTCEATHKTSTSPIVKSFNRNEC | – | – | – | 1.79 | 0.05
AF4387 (other) heavy 1: APTSSSTKKTQLQLEHLLLDLQMILNGINNYKNPKLTDMLTFEFYMPKKATELKHLQCLERELKPLEEVLNLAQSKNFHLRPRDLISNINVIVLELKGSETTFMCEYADETATIVEFLNRWITFCQSIISTLTGGGGSGGGGSGGGGSGGGGSQVQLVQSGAEVKKPGASVKVSCKASGYTFTDYYMHWVRQAPGQGLEWMGIINPRAGYTSYALKFQGRVTMTRDTSTSTVYMELSSLRSEDTAVYYCTSGWDVWGQGTLVTVSSAKTTAPSVYPLAPVCGDTTGSSVTLGCLVKGYFPEPVTLTWNSGSLSSGVHTFPAVLQSDLYTLSSSVTVTSSTWPSQSITCNVAHPASSTKVDKKIEPRGPTIKPCPPCKCPAPNAAGGPSVFIFPPKIKDVLMISLSPIVTCVVVDVSEDDPDVQISWFVNNVEVHTAQTQTHREDYNSTLRVVSALPIQHQDWMSGKEFKCKVNNKDLGAPIERTISKPKGSVRAPQVYVLPPPEEEMTKKQVTLTCMVTDFMPEDIYVEWTNNGKTELNYKNTEPVLDSDGSYFMYSDLRVEKKNWVERNSYSCSVVHEGLHNHHTTESFSRTPGK heavy 2: QVQLVQSGAEVKKPGASVKVSCKASGYTFTDYYMHWVRQAPGQGLEWMGIINPRAGYTSYALKFQGRVTMTRDTSTSTVYMELSSLRSEDTAVYYCTSGWDVWGQGTLVTVSSAKTTAPSVYPLAPVCGDTTGSSVTLGCLVKGYFPEPVTLTWNSGSLSSGVHTFPAVLQSDLYTLSSSVTVTSSTWPSQSITCNVAHPASSTKVDKKIEPRGPTIKPCPPCKCPAPNAAGGPSVFIFPPKIKDVLMISLSPIVTCVVVDVSEDDPDVQISWFVNNVEVHTAQTQTHREDYNSTLRVVSALPIQHQDWMSGKEFKCKVNNKDLGAPIERTISKPKGSVRAPQVYVLPPPEKEMTKKQVSLTCLVKDFMPEDIYVEWTNNGKTELNYKNTEPVLKSDGSYFMYSKLTVEKKNWVERNSYSCSVVHEGLHNHHTTKSFSRTPGGGGSGGGSHHHHHH light: DIQMTQSPSSLSASVGDRVTITCRASQSISTWLAWYQQKPGKAPKLLIYAASSLDSGVPSRFSGSGSGTDFTLTISSLQPEDFATYYCQQSYSFPVTFGQGTKVEIKRADAAPTVSIFPPSSEQLTSGGASVVCFLNNFYPKDINVKWKIDGSERQNGVLNSWTDQDSKDSTYSMSSTLTLTKDEYERHNSYTCEATHKTSTSPIVKSFNRNEC | – | – | – | 0.419 | 0.057
AF4389 (other) heavy 1: APTSSSTKKTQLQLEHLLLDLQMILNGINNYKNPKLTDMLTFEFYMPKKATELKHLQCLERELKPLEEVLNLAQSKNFHLRPRDLISNINVIVLELKGSETTFMCEYADETATIVEFLNRWITFCQSIISTLTGGGGSGGGGSGGGGSGGGGSQVQLVQSGAEVKKPGASVKVSCKASGHTFTRYYMHWVRQAPGQGLEWMGIINPSGGYATYAQKFQGRVTMTRDTSTSTVYMELSSLRSEDTAVYYCASGLFIWGQGTLVTVSSAKTTAPSVYPLAPVCGDTTGSSVTLGCLVKGYFPEPVTLTWNSGSLSSGVHTFPAVLQSDLYTLSSSVTVTSSTWPSQSITCNVAHPASSTKVDKKIEPRGPTIKPCPPCKCPAPNAAGGPSVFIFPPKIKDVLMISLSPIVTCVVVDVSEDDPDVQISWFVNNVEVHTAQTQTHREDYNSTLRVVSALPIQHQDWMSGKEFKCKVNNKDLGAPIERTISKPKGSVRAPQVYVLPPPEEEMTKKQVTLTCMVTDFMPEDIYVEWTNNGKTELNYKNTEPVLDSDGSYFMYSDLRVEKKNWVERNSYSCSVVHEGLHNHHTTESFSRTPGK heavy 2: QVQLVQSGAEVKKPGASVKVSCKASGHTFTRYYMHWVRQAPGQGLEWMGIINPSGGYATYAQKFQGRVTMTRDTSTSTVYMELSSLRSEDTAVYYCASGLFIWGQGTLVTVSSAKTTAPSVYPLAPVCGDTTGSSVTLGCLVKGYFPEPVTLTWNSGSLSSGVHTFPAVLQSDLYTLSSSVTVTSSTWPSQSITCNVAHPASSTKVDKKIEPRGPTIKPCPPCKCPAPNAAGGPSVFIFPPKIKDVLMISLSPIVTCVVVDVSEDDPDVQISWFVNNVEVHTAQTQTHREDYNSTLRVVSALPIQHQDWMSGKEFKCKVNNKDLGAPIERTISKPKGSVRAPQVYVLPPPEKEMTKKQVSLTCLVKDFMPEDIYVEWTNNGKTELNYKNTEPVLKSDGSYFMYSKLTVEKKNWVERNSYSCSVVHEGLHNHHTTKSFSRTPGGGGSGGGSHHHHHH light: DIQMTQSPSSLSASVGDRVTITCRASQSINSWLAWYQQKPGKAPKLLIYATSTLESGVPSRFSGSGSGTDFTLTISSLQPEDFATYYCQQYYRFPVTFGQGTKVEIKRADAAPTVSIFPPSSEQLTSGGASVVCFLNNFYPKDINVKWKIDGSERQNGVLNSWTDQDSKDSTYSMSSTLTLTKDEYERHNSYTCEATHKTSTSPIVKSFNRNEC | – | – | – | 1.67 | 0.118
PD1-IL2-R06-E04 (SEQ ID NO: 33) (scFv, V5-tagged in the assay) scFv: QVQLVQSGAEVKKPGASVKVSCKASGYTFTRYYIHWVRQAPGQGLEWMGWINAYNGDTNYAQKLQGRVTMTRDTSTSTVYMELSSLRSEDTAVYYCARDSYYYDSFDYWGQGTLVTVSSASGGGGSGGGGSGGGGSHASDIQMTQSPSSLSASVGDRVTITCRASQTITDWLAWYQQKPGKAPKLLIYGASNLQGGVPSRFSGSGSGTDFTLTISSLQPEDFATYYCQQYYSSWTFGQGTKVEIK | 50 | 247 | 1110 | – | –
PD1-IL2-R02-A08 (scFv, V domains shown, cf) VH: QVQLVQSGAEVKKPGASVKVSCKVSGYTFTSYDINWVRQAPGQGLEWMGWINPNSGDTGYAQKFQGRVTMTRDTSTSTVYMELSSLRSEDTAVYYCARDTGLGYYYGSGDFDYWGQGTLVTVSS VL: DIQMTQSPSSLSASVGDRVTITCQASQDIHNYLNWYQQKPGKAPKLLIYDVSNLETGVPSRFSGSGSGTDFTLTISSLQPEDFATYYCQQAISFPLTFGGGTKVEIK | 995 | 520 | 1610 | – | –
PD1-IL2-R07-A04 (scFv) QVQLVQSGAEVKKPGASVKVSCKASGYTFTDYYMHWVRQAPGQGLEWMGIINPRAGYTSYALKFQGRVTMTRDTSTSTVYMELSSLRSEDTAVYYCTSGMDVWGQGTLVTVSSASGGGGSGGGGSGGGGSHASDIQMTQSPSSLSASVGDRVTITCRASQSISTWLAWYQQKPGKAPKLLIYAASSLQSGVPSRFSGSGSGTDFTLTISSLQPEDFATYYCQQSYSFPVTFGQGTKVEIK | 730 | 973 | 1610 | – | –
PD1-IL2-R07-A09 (SEQ ID NO: 34) (scFv, V5-tagged in the assay) scFv: QVQLVQSGAEVKKPGASVKVSCKASGYTFTSYYMHWVRQAPGQGLEWMGIINPSDGSTTYAQSFQGRVTMTRDTSTSTVYMELSSLRSEDTAVYYCASGWDVWGQGTLVTVSSASGGGGSGGGGSGGGGSHASDIVMTQSPDSLAVSLGERATINCKSSQSVFSSANNKNYLAWYQQKPGQPPKLLIYWASTRESGVPDRFSGSGSGTDFTLTISSLQAEDVAVYYCQQYFGTPVTFGGGTKVEIK | 1240 | 2040 | 910 | – | –
PD1-IL2-R02-A11 (scFv, V domains shown, cf) VH: QVQLVQSGAEVKKPGASVKVSCKASGHTFTRYYMHWVRQAPGQGLEWMGIINPSGGYATYAQKFQGRVTMTRDTSTSTVYMELSSLRSEDTAVYYCASGWDVWGQGTLVTVSS VL: DIQMTQSPSSLSASVGDRVTITCRASQSINSWLAWYQQKPGKAPKLLIYATSTLESGVPSRFSGSGSGTDFTLTISSLQPEDFATYYCQQSYSFPPTFGQGTKVEIK | 1620 | 1560 | 1780 | – | –
